Measured values as given in article PMC10883267 (2023).

Experiments:
Assay in all cases: pulldown with E. coli lysates, quantified
[1] = target: eIF4E-binding motif of human eIF4EBP1 (50-83) (UniProt Q13541); conditions: n = 3 independent experiments; parent: est. 0.90; read off a plot
[2] = target: eIF4E-binding motif of human eIF4ENIF1 (27-63) (UniProt Q9NRA8); conditions: n = 3 independent experiments; parent: est. 2.5; read off a plot
[3] = target: eIF4E-binding motif of human eIF4G (608-647) (UniProt Q04637); conditions: n = 3 independent experiments; parent: est. 0.30; read off a plot
eIF4E-binding motif of human eIF4G (608-647), sequence (Q04637 608-647): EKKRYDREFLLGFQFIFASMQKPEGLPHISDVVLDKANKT

mouse eIF4E1B (63-244) (from UniProt Q3UTA9) Lateral (V91, T92, I107 mutated; new residues not printed), sequence (Q3UTA9 63-244, change not shown): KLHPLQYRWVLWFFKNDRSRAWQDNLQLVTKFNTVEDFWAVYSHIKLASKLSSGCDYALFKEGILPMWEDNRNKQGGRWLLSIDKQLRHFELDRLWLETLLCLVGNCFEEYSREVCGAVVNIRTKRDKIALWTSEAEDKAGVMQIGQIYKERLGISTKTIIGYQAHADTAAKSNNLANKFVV
mouse eIF4E1B (63-244) (from UniProt Q3UTA9) Dorsal (W101 mutated; new residue not printed), sequence (Q3UTA9 63-244, change not shown): as above
eIF4E-binding motif of human eIF4ENIF1 (27-63), sequence (Q9NRA8 27-63): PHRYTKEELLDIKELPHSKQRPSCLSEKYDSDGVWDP
eIF4E-binding motif of human eIF4EBP1 (50-83), sequence (Q13541 50-83): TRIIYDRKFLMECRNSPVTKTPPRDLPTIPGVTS

For “mouse eIF4E1B (63-244) (from UniProt Q3UTA9) Lateral (V91, T92, I107 mutated; new residues not printed)”, the other: Binding (rel. to Mm eIF4E) (rel. to Mm eIF4E) [1] was 0.2, the other: Binding (rel. to Mm eIF4E) (rel. to Mm eIF4E) [2] was 0.9 and the other: Binding (rel. to Mm eIF4E) (rel. to Mm eIF4E) [3] was 0.12.
“mouse eIF4E1B (63-244) (from UniProt Q3UTA9) Dorsal (W101 mutated; new residue not printed)” was tested, and the other: Binding (rel. to Mm eIF4E) (rel. to Mm eIF4E) [1] was 0.1, the other: Binding (rel. to Mm eIF4E) (rel. to Mm eIF4E) [2] was 0.15 and the other: Binding (rel. to Mm eIF4E) (rel. to Mm eIF4E) [3] was 0.2.
